Patent US20050191302

Target: recombinant TIMP-1 (Biogenesis, Poole, UK)

B1: recombinant human caspase-3 (Calbiochem) (protein)
chain: SGISLDNSYKMDYPEMGLCIIINNKNFHKSTGMTSRSGTDVDAANLRETFRNLKYEVRNKNDLTREEIVELMRDVSKEDHSKRSSFVCVLLSHGEEGIIFGTNGPVDLKKITNFFRGDRCRSLTGKPKLFIIQACRGTELDCGIETDSGVDDDMACHKIPVEADFLYAYSTAPGYYSWRNSKDGSWFIQSLCAMLKQYADKLEFMHILTRVNRKVATEFESFSFDATFHAKKQIPCIVSMLTKELYFYH
  caspase-3 activity (colorimetric substrate assay; recombinant caspase-3 incubated with TIMP-1 at 285-2850 ng/ml for 1 hour before the substrate was added): TIMP-1 did not reduce caspase-3 activity directly (data not shown)
